The record followed here is patent US20150299319A1.

The target of the assay is KIR2DL1 on human NK cell clones (human) (UniProt P43626). Put plainly: cell-based or functional assay.

A value given as a limit tells only on which side of the number the result lay.

Chain of UniProt P43626 (P43626 22-348): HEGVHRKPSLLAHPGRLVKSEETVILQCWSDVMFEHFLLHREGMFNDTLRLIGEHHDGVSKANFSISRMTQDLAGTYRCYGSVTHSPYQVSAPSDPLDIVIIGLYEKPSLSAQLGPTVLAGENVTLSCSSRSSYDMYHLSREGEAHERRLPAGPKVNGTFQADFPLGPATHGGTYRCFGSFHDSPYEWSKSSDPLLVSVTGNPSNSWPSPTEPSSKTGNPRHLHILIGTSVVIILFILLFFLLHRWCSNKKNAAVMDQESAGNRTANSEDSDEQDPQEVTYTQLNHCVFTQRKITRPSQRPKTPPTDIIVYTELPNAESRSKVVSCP

In turn, “EB6 monoclonal antibody (IgG1, anti KIR2DL1)” came in with a lysis of autologous Cw4+ PHA blasts by NK cells with Campath of over 30%.
